“And” between values parts separate entries of the source, which are not always exact repeats. Equal values may be shown once. Read-outs that look alike come from different tables or passages of the source.
B1: PP7 coat protein (wild-type, monomeric) (natural protein)
chain: MSKTIVLSVGEATRTLTEIQSTADRQIFEEKVGPLVGRLRLTASLRQNGAKTAYRVNLKLDQADVVDCSTSVCGELPKVRYTQVWSHDVTIVANSTEASRKSLYDLTKSLVATSQVEDLVVNLVPLGR
notes: Self-assembles in the expression host into VLPs; also called PP7 CP; PP7 capsid protein; source: bacterial expression host (E. coli), recombinantly expressed, purified as VLPs

Legend:
Test in all cases: cryo-EM structure; 3D reconstruction of purified VLPs self-assembled in the bacterial expression host; closed cages (T = 3, T = 4, D5, D5E, C2, C3) and tubes
[1] = target: PP7-AY-PP7, PP7 coat protein dimer with AY linker (Pseudomonas phage PP7)
[2] = target: PP7-AY-PP7, PP7 coat protein dimer with AY linker (Pseudomonas phage PP7); remark: listed apart in the source
[3] = target: the molecule itself

| Molecule | stoichiometry N [1] | stoichiometry N [2] | stoichiometry N [3] |
| --- | --- | --- | --- |
| PP7-AY-PP7, PP7 coat protein dimer with AY linker | 102 copies | 87 copies | – |
| B1 | – | – | 150 coat proteins and 174 copies and 204 copies |

Source: paper PMC12710124, “Pleomorphism in Wild-Type and Engineered PP7 Virus-Like Particles” (Small (Weinheim an der Bergstrasse, Germany), 2025)
